Numbered stars: 1 amine (or outer) side, 2 acyl side, 3 side chain; on linkers, the order of the positions; unused ones are H or OH. Bridge positions count the residues as written; N and C are the ends. Side chains are listed from the residue outwards. Ends that are not written are not given here. * marks the point of attachment. C20 diacid = O=C(O)CCCCCCCCCCCCCCCCCCC(=O)*; γGlu = O=C(O)[C@H](CCC(=O)[*:2])N[*:1]
T1: human calcitonin receptor (human, UniProt P30988 25-474)
T1 construct: whole, on cells; Assayed as cell membranes of BHK tk'ts 13 cells stably transfected with the human calcitonin receptor (Assay VII); also called hCTR; hCT
T1 sequence (looked up): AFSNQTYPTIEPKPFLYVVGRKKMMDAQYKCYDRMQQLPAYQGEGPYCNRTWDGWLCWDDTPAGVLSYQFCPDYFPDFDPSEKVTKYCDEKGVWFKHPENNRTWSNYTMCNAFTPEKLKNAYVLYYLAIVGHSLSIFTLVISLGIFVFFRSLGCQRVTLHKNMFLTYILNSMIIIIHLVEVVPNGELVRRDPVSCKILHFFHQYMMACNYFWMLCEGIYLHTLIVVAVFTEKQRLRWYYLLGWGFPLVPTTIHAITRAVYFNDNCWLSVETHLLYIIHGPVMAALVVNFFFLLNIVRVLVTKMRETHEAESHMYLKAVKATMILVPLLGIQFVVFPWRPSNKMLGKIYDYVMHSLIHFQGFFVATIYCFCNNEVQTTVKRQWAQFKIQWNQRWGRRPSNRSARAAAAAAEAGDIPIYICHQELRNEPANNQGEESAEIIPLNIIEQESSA

B1: N^ε1-[(4S)-4-carboxy-4-(19-carboxynonadecanoylamino)butanoyl]-[Arg17,Pro21,Pro27,His35]-h-amylin (peptide)
peptide: K([γGlu-C20 diacid])CNTATCATQRLANFLRHSSPNFGAIPSSTNVGSHTY-NH2
modifications: disulfide 2-7; N-terminus assumed
SMILES: CC[C@H](C)[C@H](NC(=O)[C@H](C)NC(=O)CNC(=O)[C@H](Cc1ccccc1)NC(=O)[C@H](CC(N)=O)NC(=O)[C@@H]1CCCN1C(=O)[C@H](CO)NC(=O)[C@H](CO)NC(=O)[C@H](Cc1c[nH]cn1)NC(=O)[C@H](CCCNC(=N)N)NC(=O)[C@H](CC(C)C)NC(=O)[C@H](Cc1ccccc1)NC(=O)[C@H](CC(N)=O)NC(=O)[C@H](C)NC(=O)[C@H](CC(C)C)NC(=O)[C@H](CCCNC(=N)N)NC(=O)[C@H](CCC(N)=O)NC(=O)[C@@H](NC(=O)[C@H](C)NC(=O)[C@@H]1CSSC[C@H](NC(=O)[C@@H](N)CCCCNC(=O)CC[C@H](NC(=O)CCCCCCCCCCCCCCCCCCC(=O)O)C(=O)O)C(=O)N[C@@H](CC(N)=O)C(=O)N[C@@H]([C@@H](C)O)C(=O)N[C@@H](C)C(=O)N[C@@H]([C@@H](C)O)C(=O)N1)[C@@H](C)O)C(=O)N1CCC[C@H]1C(=O)N[C@@H](CO)C(=O)N[C@@H](CO)C(=O)N[C@H](C(=O)N[C@@H](CC(N)=O)C(=O)N[C@H](C(=O)NCC(=O)N[C@@H](CO)C(=O)N[C@@H](Cc1c[nH]cn1)C(=O)N[C@H](C(=O)N[C@@H](Cc1ccc(O)cc1)C(N)=O)[C@@H](C)O)C(C)C)[C@@H](C)O
notes: also called compound 60
B2: N^ε1-[(4S)-4-carboxy-4-(19-carboxynonadecanoylamino)butanoyl]-[His14,Arg17,Pro21,Pro27,His35]-h-amylin (peptide)
peptide: K([γGlu-C20 diacid])CNTATCATQRLAHFLRHSSPNFGAIPSSTNVGSHTY-NH2
modifications: disulfide 2-7; N-terminus assumed
SMILES: CC[C@H](C)[C@H](NC(=O)[C@H](C)NC(=O)CNC(=O)[C@H](Cc1ccccc1)NC(=O)[C@H](CC(N)=O)NC(=O)[C@@H]1CCCN1C(=O)[C@H](CO)NC(=O)[C@H](CO)NC(=O)[C@H](Cc1c[nH]cn1)NC(=O)[C@H](CCCNC(=N)N)NC(=O)[C@H](CC(C)C)NC(=O)[C@H](Cc1ccccc1)NC(=O)[C@H](Cc1c[nH]cn1)NC(=O)[C@H](C)NC(=O)[C@H](CC(C)C)NC(=O)[C@H](CCCNC(=N)N)NC(=O)[C@H](CCC(N)=O)NC(=O)[C@@H](NC(=O)[C@H](C)NC(=O)[C@@H]1CSSC[C@H](NC(=O)[C@@H](N)CCCCNC(=O)CC[C@H](NC(=O)CCCCCCCCCCCCCCCCCCC(=O)O)C(=O)O)C(=O)N[C@@H](CC(N)=O)C(=O)N[C@@H]([C@@H](C)O)C(=O)N[C@@H](C)C(=O)N[C@@H]([C@@H](C)O)C(=O)N1)[C@@H](C)O)C(=O)N1CCC[C@H]1C(=O)N[C@@H](CO)C(=O)N[C@@H](CO)C(=O)N[C@H](C(=O)N[C@@H](CC(N)=O)C(=O)N[C@H](C(=O)NCC(=O)N[C@@H](CO)C(=O)N[C@@H](Cc1c[nH]cn1)C(=O)N[C@H](C(=O)N[C@@H](Cc1ccc(O)cc1)C(N)=O)[C@@H](C)O)C(C)C)[C@@H](C)O
notes: also called compound 66
B3: N^ε1-[(4S)-4-carboxy-4-(19-carboxynonadecanoylamino)butanoyl]-[His14,Arg17,Pro21,Pro27,Arg34]-h-amylin (peptide)
peptide: K([γGlu-C20 diacid])CNTATCATQRLAHFLRHSSPNFGAIPSSTNVGRNTY-NH2
modifications: disulfide 2-7; N-terminus assumed
SMILES: CC[C@H](C)[C@H](NC(=O)[C@H](C)NC(=O)CNC(=O)[C@H](Cc1ccccc1)NC(=O)[C@H](CC(N)=O)NC(=O)[C@@H]1CCCN1C(=O)[C@H](CO)NC(=O)[C@H](CO)NC(=O)[C@H](Cc1c[nH]cn1)NC(=O)[C@H](CCCNC(=N)N)NC(=O)[C@H](CC(C)C)NC(=O)[C@H](Cc1ccccc1)NC(=O)[C@H](Cc1c[nH]cn1)NC(=O)[C@H](C)NC(=O)[C@H](CC(C)C)NC(=O)[C@H](CCCNC(=N)N)NC(=O)[C@H](CCC(N)=O)NC(=O)[C@@H](NC(=O)[C@H](C)NC(=O)[C@@H]1CSSC[C@H](NC(=O)[C@@H](N)CCCCNC(=O)CC[C@H](NC(=O)CCCCCCCCCCCCCCCCCCC(=O)O)C(=O)O)C(=O)N[C@@H](CC(N)=O)C(=O)N[C@@H]([C@@H](C)O)C(=O)N[C@@H](C)C(=O)N[C@@H]([C@@H](C)O)C(=O)N1)[C@@H](C)O)C(=O)N1CCC[C@H]1C(=O)N[C@@H](CO)C(=O)N[C@@H](CO)C(=O)N[C@H](C(=O)N[C@@H](CC(N)=O)C(=O)N[C@H](C(=O)NCC(=O)N[C@@H](CCCNC(=N)N)C(=O)N[C@@H](CC(N)=O)C(=O)N[C@H](C(=O)N[C@@H](Cc1ccc(O)cc1)C(N)=O)[C@@H](C)O)C(C)C)[C@@H](C)O
notes: also called compound 85
B4: N^ε1-[(4S)-4-carboxy-4-(19-carboxynonadecanoylamino)butanoyl]-[Glu14,Arg17,Pro21,Pro27,Arg35]-h-amylin (peptide)
peptide: K([γGlu-C20 diacid])CNTATCATQRLAEFLRHSSPNFGAIPSSTNVGSRTY-NH2
modifications: disulfide 2-7; N-terminus assumed
SMILES: CC[C@H](C)[C@H](NC(=O)[C@H](C)NC(=O)CNC(=O)[C@H](Cc1ccccc1)NC(=O)[C@H](CC(N)=O)NC(=O)[C@@H]1CCCN1C(=O)[C@H](CO)NC(=O)[C@H](CO)NC(=O)[C@H](Cc1c[nH]cn1)NC(=O)[C@H](CCCNC(=N)N)NC(=O)[C@H](CC(C)C)NC(=O)[C@H](Cc1ccccc1)NC(=O)[C@H](CCC(=O)O)NC(=O)[C@H](C)NC(=O)[C@H](CC(C)C)NC(=O)[C@H](CCCNC(=N)N)NC(=O)[C@H](CCC(N)=O)NC(=O)[C@@H](NC(=O)[C@H](C)NC(=O)[C@@H]1CSSC[C@H](NC(=O)[C@@H](N)CCCCNC(=O)CC[C@H](NC(=O)CCCCCCCCCCCCCCCCCCC(=O)O)C(=O)O)C(=O)N[C@@H](CC(N)=O)C(=O)N[C@@H]([C@@H](C)O)C(=O)N[C@@H](C)C(=O)N[C@@H]([C@@H](C)O)C(=O)N1)[C@@H](C)O)C(=O)N1CCC[C@H]1C(=O)N[C@@H](CO)C(=O)N[C@@H](CO)C(=O)N[C@H](C(=O)N[C@@H](CC(N)=O)C(=O)N[C@H](C(=O)NCC(=O)N[C@@H](CO)C(=O)N[C@@H](CCCNC(=N)N)C(=O)N[C@H](C(=O)N[C@@H](Cc1ccc(O)cc1)C(N)=O)[C@@H](C)O)C(C)C)[C@@H](C)O
notes: also called compound 51
B5: N^ε1-[(4S)-4-carboxy-4-(19-carboxynonadecanoylamino)butanoyl]-[His14,Arg17,Pro21,Pro27,His34]-h-amylin (peptide)
peptide: K([γGlu-C20 diacid])CNTATCATQRLAHFLRHSSPNFGAIPSSTNVGHNTY-NH2
modifications: disulfide 2-7; N-terminus assumed
SMILES: CC[C@H](C)[C@H](NC(=O)[C@H](C)NC(=O)CNC(=O)[C@H](Cc1ccccc1)NC(=O)[C@H](CC(N)=O)NC(=O)[C@@H]1CCCN1C(=O)[C@H](CO)NC(=O)[C@H](CO)NC(=O)[C@H](Cc1c[nH]cn1)NC(=O)[C@H](CCCNC(=N)N)NC(=O)[C@H](CC(C)C)NC(=O)[C@H](Cc1ccccc1)NC(=O)[C@H](Cc1c[nH]cn1)NC(=O)[C@H](C)NC(=O)[C@H](CC(C)C)NC(=O)[C@H](CCCNC(=N)N)NC(=O)[C@H](CCC(N)=O)NC(=O)[C@@H](NC(=O)[C@H](C)NC(=O)[C@@H]1CSSC[C@H](NC(=O)[C@@H](N)CCCCNC(=O)CC[C@H](NC(=O)CCCCCCCCCCCCCCCCCCC(=O)O)C(=O)O)C(=O)N[C@@H](CC(N)=O)C(=O)N[C@@H]([C@@H](C)O)C(=O)N[C@@H](C)C(=O)N[C@@H]([C@@H](C)O)C(=O)N1)[C@@H](C)O)C(=O)N1CCC[C@H]1C(=O)N[C@@H](CO)C(=O)N[C@@H](CO)C(=O)N[C@H](C(=O)N[C@@H](CC(N)=O)C(=O)N[C@H](C(=O)NCC(=O)N[C@@H](Cc1c[nH]cn1)C(=O)N[C@@H](CC(N)=O)C(=O)N[C@H](C(=O)N[C@@H](Cc1ccc(O)cc1)C(N)=O)[C@@H](C)O)C(C)C)[C@@H](C)O
notes: also called compound 81

molecular target: T1, human calcitonin receptor; test: IC50 at hCTR divided by IC50 at hAmylin-R (SPA competition assays V and VII)
How it was run: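 Competition binding by SPA with cell membranes (35 ng/μL) and SPA beads in 50 mM Hepes pH 7.4 with 1 mM CaCl2, 5 mM MgCl2, 0.1% OA and 0.02% Tween20. Incubated 120 min at 25 °C with shaking, then counted.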

Binder | Ratio hCT/hAmylin binding
B1 | 45.2
B2 | 45.5
B3 | 91.8
B4 | 37.5
B5 | 87.2

molecular target: T1, human calcitonin receptor; test: SPA competition vs 125I-calcitonin, membranes of BHK cells with human calcitonin receptor (Assay VII)
How it was run: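 BHK hCTR membranes 35 ng/μL + SPA beads 0.05 mg/well; buffer 50 mM Hepes pH 7.4, 1 mM CaCl2, 5 mM MgCl₂, 0.1% OA, 0.02% Tween20. 120 min, 25° C., shaking. Scintillation count; IC50 by one-site binding competition.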

Binder | IC50 [nM]
B1 | 31.4
B2 | 18
B3 | 80.4
B4 | 31.1
B5 | 23.6

Reference: US20140087995A1 (published 2014)
